The text below walks through data of paper PMC12126490 (2025).

This assay addresses chromoshadow domain of HP1α (HP1αCSD, aa 109–185 of HP1α) (human, UniProt P45973 109-185).

Sequence of chromoshadow domain of HP1α (HP1αCSD, aa 109–185 of HP1α) (P45973 109-185): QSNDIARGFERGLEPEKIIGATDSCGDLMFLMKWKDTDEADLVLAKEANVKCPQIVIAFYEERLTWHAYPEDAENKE

For RKVPRVSLERL [HP1 box-containing KAP1 peptide (KAP1_(Hbox), aa 483–493 of KAP1)], the Kd was found to be 1600 nM.
